From patent publication US20240425606A1, “ANTI-IL-11RA ANTIBODIES” (Lassen Therapeutics 1, Inc., priority 2021, published 2024)
Numbering of substitutions follows the chain as printed. Names may count otherwise.

How the values were obtained:
[1] = system: type VI collagen formation (PRO-C6) in fibrotic human PCLS; experiment: Fibrotic human precision-cut lung slice (PCLS) model, PRO-C6 biomarker of ECM remodeling; assay type: cell-based; settings: 48 hours
Method: Studies were performed to evaluate the effect of the mAb5 antibody on biomarkers reflecting ECM remodeling in a fibrotic human precision-cut lung slice (PCLS) model. The anti-fibrotic effect was investigated at three different concentrations in human ex vivo lung tissue slices prepared from pulmonary fibrosis patients.
Tissue slices were prepared from the subpleural and central region of the fibrotic lung from two human end-stage donors with pulmonary fibrosis (IPF and secondary fibrosis) (see, for example, Hess et al., Toxicol In Vitro. 32:347-61, 2016). For both donors, lung tissue samples from two different regional areas (subpleural and central) were used to generate tissue cores used for PCLS. Adjacent cores were used to achieve serial PCLS for the analysis of one treatment as compared to medium treated PCLS from the same cores. This enables the comparison of densely packed fibrotic areas with fibrotic foci with less affected areas. To ensure the fibrotic status, clinical/demographic information for each patient is provided.
Each treatment was tested with three replicates for each lung region and for each donor.
Preparation and incubation of precision-cut lung slices. Lung lobes were canuled and filled with 37° C. warm 2% low-melting agarose/medium solution. Filled lobes were cooled on ice to polymerise agarose. Tissue cores with a diameter of 8 mm were prepared and cut into approximately 300 μm thick slices using a microtome (Krumdieck tissue slicer, Alabama Research and Development, Muniford, AL, USA or Vibratome OTS-5000, Science Services GmbH, Munich) in Earle's Balanced Salts Solution (EBSS). Tissue slices were incubated in Dulbecco's modified Eagle's medium/nutrient mixture F-12 Ham (DMEM) with L-glutamine and 15 mM HEPES without phenol red. Tissue slices were transferred into petri dishes and washed with DMEM for 2 hours. Medium was changed four times every 30 minutes in order to remove cell debris.
Two PCLS per well were left over night in 500 μL DMEM in 24-well plates for a final washing step. Next day, PCLS were treated with experimental treatments or controls (see Table E5) in 250 μl DMEM/F-12 culture medium for 48 hours under normal cell culture conditions (37° C., 5% CO2). Medium contained 100 units/mL penicillin and 100 μg/mL streptomycin and was not supplemented with fetal calf serum.
After incubation for 48 hours, supernatants were collected, proteinase inhibitor cocktail (0.2%) was added and samples were frozen to −80° C. Additionally, the two PCLS from each well were transferred to a 2 mL safe-lock tube, snap-frozen in liquid nitrogen immediately, and stored at −80° C. Samples from the three replicates for each condition were not pooled.
Extracellular matrix remodeling evaluation. Biomarkers that reflect ECM remodeling were assessed in supernatant by Nordic Bioscience using the following competitive ELISA: PRO-C6 (C-terminal of type VI collagen C5 domain released as type VI collagen is incorporated into the matrix; measured on mesoscale platform [hsPRO-C6]): Reflects type VI collagen formation. Type VI collagen is a beaded filament collagen mainly found in the interface between the interstitial matrix and the basement membrane.
Statistics. […] Pooled data are presented as percentage of the “no treatment” control, calculated for individual regions and donors. Statistical significant differences were evaluated on pooled data by Kruskal-Wallis with Dunn's multiple comparisons test, comparing to the “no treatment” control. […]

human IL-11Rα [2] = target: T1, human IL-11Rα (human, UniProt Q14626 23-363, limits assumed); experiment: competitive ELISA, IL-11R coated on plate; competitor: biotinylated TS7 (0.1 µg/mL)
T1 construct: Protein coated on ELISA plates and used in solution for BLI; also called hIL-11Rα; hIL-11R
T1 sequence: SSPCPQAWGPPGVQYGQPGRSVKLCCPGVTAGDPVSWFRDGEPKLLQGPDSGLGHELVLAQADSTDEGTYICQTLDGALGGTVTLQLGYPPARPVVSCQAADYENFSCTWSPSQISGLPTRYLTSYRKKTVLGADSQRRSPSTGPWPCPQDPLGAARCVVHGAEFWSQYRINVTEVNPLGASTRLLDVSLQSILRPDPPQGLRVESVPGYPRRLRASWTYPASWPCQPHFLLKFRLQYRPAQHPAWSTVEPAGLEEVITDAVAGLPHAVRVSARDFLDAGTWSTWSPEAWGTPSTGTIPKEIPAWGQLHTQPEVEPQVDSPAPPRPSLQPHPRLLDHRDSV
Method: (§1) Relative binding activity of the antibodies was tested by competitive ELISA using biotinylated mAbs 8E2 or TS7. Antibodies 8E2 and TS7 were biotinylated using sulfo-NHS Biotin (Thermo Fisher) per the manufacturer's instructions. IL-11R was coated onto ELISA plates (Nunc, MaxiSorp) at 2 μg/mL in PBS, and plates were blocked with 2% BSA in PBS. After washing the plate with water, antibodies to be tested were titrated across the plate in a final volume of 90 μL followed by addition of 10 μL of biotinylated 8E2 or biotinylated TS7, as indicated in Table E1 (0.1 μg/mL final concentration) to each well. Plates were incubated for 2 hours on a plate-shaker, followed by washing and addition of 100 μL/well of streptavidin-HRP (Jackson ImmunoResearch, 1/1000 dilution). After a further 1 hour incubation, plates were washed, developed with Ultra-TMB HRP substrate (Thermo Fisher), and stopped by the addition of 50 μL/well of 2 M sulfuric acid. Plates were read at 450 nm on an iD5 plate reader (Molecular Devices).

human IL-11Rα [3] = target: T1, human IL-11Rα; experiment: competitive ELISA, IL-11R coated on plate; competitor: biotinylated 8E2 (0.1 µg/mL)
Method: as §1

human IL-11Rα [4] = target: T1, human IL-11Rα; experiment: BLI (Octet RED96e), mAb on protein G biosensors, hIL-11Rα in solution
Method: Association was carried out in the presence of a 2-fold dilution series of hIL-11Rα and was allowed to proceed for 120 seconds; dissociation was measured for 300 to 1200 seconds.

human IL-11Rα [5] = target: T1, human IL-11Rα; experiment: BLI (Octet RED96e), mAb on anti-human constant domain (AHC) biosensors, hIL-11R in solution
Text: A further series of antibodies were designed in which the residue at Kabat position 31 of the heavy chain was varied (mAbs 16-32). In this case an alternate biolayer interferometry assay was used to initially rank the antibodies compared to mAb5, the closest relative in sequence to mAbs 16-32. MAbs were loaded onto anti-human constant domain (AHC) biosensors (FortdBio) in 10× kinetics buffer consisting of PBS, 0.1% BSA, 0.02% Tween 20 for 120 s to achieve a spectral shift value of 0.8 to 1.2 nm. Association was carried out in the presence of 2-fold dilution series of hIL-1 IR and was allowed to proceed for 120 s. Dilution series started 10 nM. The dissociation in 10× kinetics buffer for 1200 s. Binding kinetic measurements were taken on an Octet RED96e instrument.

[6] = target: T2, IL-11R on STAT3 Reporter (Luciferase)-HEK293 cells (UniProt Q14626 23-422); experiment: cell-based or functional assay
T2 sequence (looked up): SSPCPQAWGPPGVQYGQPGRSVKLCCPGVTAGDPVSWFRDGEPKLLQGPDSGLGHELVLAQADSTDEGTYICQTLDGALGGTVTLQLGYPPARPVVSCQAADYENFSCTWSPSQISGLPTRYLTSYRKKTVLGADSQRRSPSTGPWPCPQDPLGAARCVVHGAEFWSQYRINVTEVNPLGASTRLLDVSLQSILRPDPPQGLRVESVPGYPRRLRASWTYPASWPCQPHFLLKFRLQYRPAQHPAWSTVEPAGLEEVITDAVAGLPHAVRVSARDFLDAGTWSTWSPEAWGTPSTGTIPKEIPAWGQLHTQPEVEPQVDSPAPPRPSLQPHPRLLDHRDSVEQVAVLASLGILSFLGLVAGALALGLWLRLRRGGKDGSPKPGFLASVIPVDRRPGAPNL

For COC(=O)c1ccc2c(c1)NC(=O)/C2=C(\Nc1ccc(N(C)C(=O)CN2CCN(C)CC2)cc1)c1ccccc1 [nintedanib, Nintedanib, reference compound], the “effects on ECM remodeling” value ([1]; fibrotic human PCLS) was “ECM remodeling could be reduced” and the “median levels of PRO-C6 compared to the no treatment (media) control” value ([1]; pooled data all donors and regions, mAb5 0.3, 3.0, 30 μg/mL, nintedanib 1 μM, isotype control 30 μg/mL) was “decreased”.

B1: mAb5 (antibody, V domains shown)
VH: EVQLLESGGGLVQPGGSLRLSCAASGFTFSWYSMTWVRQAPGKGLEWVSSIVPYGDLTQYADSVKGRFTISRDNSKNTLYLQMNSLRAEDTAVYYCAKGPGWGSFDLWGRGTLVTVSS
VL: DIQMTQSPSSLSASVGDRVTITCQASQDINNYLNWYQQKPGKAPKLLIYDASNLQTGVPSRFSGSGSGTDFTFTISSLQPEDIATYYCQQHESQSPTFGPGTKVDIK
notes: Expressed as human IgG4 (S228P EU); also called mAb5 IL11RA Ab
B1 was tested, and the IC50 (human IL-11Rα [2]) was 2.1 µg/mL, the IC50 (human IL-11Rα [3]) was 1.4 µg/mL and the Kd (human IL-11Rα [4]) was less than 1 pM. It also gave a koff (human IL-11Rα [4]) of less than 1e-07 s⁻¹, a kon (human IL-11Rα [4]) of 63700 M⁻¹ s⁻¹ and a Kd (human IL-11Rα [5]) of 50 pM. For the same molecule, the koff (human IL-11Rα [5]) was 2.5e-05 s⁻¹, the kon (human IL-11Rα [5]) was 490000 M⁻¹ s⁻¹ and the “IC50, STAT3 luciferase reporter assay (HEK293), inhibiting IL-11, Assay 1” value (from here on “IC50 … inhibiting IL-11, Assay 1”) [6] was 0.16 µg/mL. For the same molecule, the “IC50, STAT3 luciferase reporter assay (HEK293), inhibiting IL-11, Assay 2” value (shortened to “IC50 … inhibiting IL-11, Assay 2”) [6] was 0.18 µg/mL and the “IC50, STAT3 luciferase reporter assay (HEK293), inhibiting IL-11, Mean” value (“IC50 … inhibiting IL-11, Mean” below) [6] was 0.17 µg/mL.

B2: mAb3 (antibody, V domains shown)
VH: B1 VH with G101D
VL: B1 VL
notes: Expressed as human IgG4 (S228P EU)
For B2, the IC50 (human IL-11Rα [3]) was 2.8 µg/mL.

B3: mAb4 (antibody, V domains shown)
VH: B1 VH with G101D
VL: B1 VL with S93F
notes: as for B2
Work on B3 yielded an IC50 (human IL-11Rα [3]) of 5.5 µg/mL.

B4: mAb15 (antibody, V domains shown)
VH: B1 VH
VL: B1 VL with S93T, S95T
notes: as for B2
B4 showed an IC50 (human IL-11Rα [2]) of 1.7 µg/mL, a Kd (human IL-11Rα [4]) of less than 1 pM and a koff (human IL-11Rα [4]) of less than 1e-07 s⁻¹. The kon (human IL-11Rα [4]) was 84000 M⁻¹ s⁻¹, the “IC50 … inhibiting IL-11, Assay 1” value [6] was 0.38 µg/mL and the “IC50 … inhibiting IL-11, Assay 2” value [6] was 0.33 µg/mL. The “IC50 … inhibiting IL-11, Mean” value [6] was 0.36 µg/mL.

B5: mAb2 (antibody, V domains shown)
VH: B1 VH with Y54S, D56G, L57H, G101D
VL: B1 VL with S93F
notes: as for B2
B5 was tested, and the IC50 (human IL-11Rα [3]) was greater than 30 µg/mL.

B6: mAb6 (antibody, V domains shown)
VH: B1 VH
VL: B1 VL with S93F
notes: as for B2
In the case of B6, the IC50 (human IL-11Rα [3]) is reported as 1.5 µg/mL, the Kd (human IL-11Rα [4]) is reported as less than 1 pM and the koff (human IL-11Rα [4]) is reported as less than 1e-07 s⁻¹. The kon (human IL-11Rα [4]) was 800000 M⁻¹ s⁻¹, the “IC50 … inhibiting IL-11, Assay 1” value [6] was 11 µg/mL and the “IC50 … inhibiting IL-11, Assay 2” value [6] was 0.39 µg/mL. For the same molecule, the “IC50 … inhibiting IL-11, Mean” value [6] was 5.7 µg/mL.
